# B1: Azoarcus group I ribozyme (parent)
# chain: GUGCCUUGCGCCGGGAAACCACGCAAGGGAUGGUGUCAAAUUCGGCGAAACCUAAGCGCCCGCCCGGGCGUAUGGCAACGCCGAGCCAAGCUUCGGCGCCUGCGCCGAUGAAGGUGUAGAGACUAGACGGCACCCACCUAAGGCAAACGCUAUGGUGAAGGCAUAGUCCAGGGAGUGGCGAAAGUCACACAAACCGG
# Variants of: B1
# Assay: reverse-splicing fitness (ratio to wild type); higher = more active; in vitro selection; Mg2+ level not given
# In short: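 An in vitro group I ribozyme library with randomized positions was T7-transcribed and gel-purified. In triplicate, 10 pmol RNA in EPPS pH 7.5 was reacted with 50 pmoles of a 30-nt RNA substrate for 1 h at 37 °C across several added MgCl2 levels (1–48 mM), then stopped with EDTA. Products were reverse transcribed from a substrate-complementary primer, PCR-amplified and sequenced (HiSeq 4000). Fitness is a variant's read proportion after selection over that before, normalised to wild type.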
row,Variant,reverse-splicing fitness
1,C82U A111G A120G A145C C150A C169G,0.00737
2,C82U A111G A120G A145C C150A C169U,0.00634
3,C82U A111G A120G A145C C150A C169A,0.00777
4,C82U A111G A120C A145U C150A U176G,0.0049
5,C82U A111G A120C A145U C150A U176A,0.0116
6,C82U A111G A120C A145U C150A U176C,0.0125
7,C82U A111G A120C A145U C169U,0.0104
8,C82U A111G A120C A145U C169G,0.00646
9,C82U A111G A120C A145U C169A,0.00556
10,C82U A111G A120G A145G C150U C169G U176C,0.0168
11,C82U A111G A120G A145G C150U C169G U176G,0.00444
12,C82U A111G A120G A145G C150U C169G U176A,0.014
13,C82U A111G A120G A145G C150A C169U U176G,0.00573
14,C82U A111G A120G A145G C150A C169U U176C,0.0156
15,C82U A111G A120G A145G C150A C169U U176A,0.0215
16,C82U A111G A120G A145C C150U U176A,0.0079
17,C82U A111G A120G A145C C150U U176C,0.00908
18,C82U A111G A120G A145C C150U U176G,0.00386
19,C82U A111G A120G A145U C169G,0.0113
20,C82U A111G A120G A145U C169A,0.00841
21,C82U A111G A120G A145U C169U,0.0103

row,Variant,reverse-splicing fitness
1,C82U A111G A120G A145G C150A C169G U176A,0.0174
2,C82U A111G A120G A145G C150A C169G U176G,0.00482
3,C82U A111G A120G A145G C150A C169G U176C,0.0228
4,C82U A111G A120C A145G C169U,0.0129
5,C82U A111G A120G A145U C150U C169U,0.00963
6,C82U A111G A120G A145U C150U C169A,0.00925
7,C82U A111G A120G A145U C150U C169G,0.0107
8,C82U A111G A120G A145C C150G C169A U176C,0.00579
9,C82U A111G A120G A145C C150G C169A U176A,0.00781
10,C82U A111G A120G A145C C150G C169A U176G,0.00439
11,C82U A111G A120G A145U,0.0174
12,C82U A111G A120G A145G,0.0164
13,C82U A111G A120G A145C,0.0135
14,C82U A111G A120G A145U C150U,0.0126
15,C82U A111G A120G A145U C150G,0.00645
16,C82U A111G A120G A145U C150A,0.00726
17,C82U A111G A120G A145U C169U U176C,0.0133
18,C82U A111G A120G A145U C169U U176G,0.00342
19,C82U A111G A120G A145U C169U U176A,0.0208
20,C82U A111G A120G C150A C169G,0.00939
21,C82U A111G A120G C150A C169A,0.00997

row,Variant,reverse-splicing fitness
1,C82U A111G A120G A145U C150U C169A U176A,0.0119
2,C82U A111G A120G A145U C150U C169A U176G,0.0045
3,C82U A111G A120G A145U C150U C169A U176C,0.00928
4,C82U A111G A120C A145U C150U U176G,0.00565
5,C82U A111G A120C A145U C150U U176C,0.0223
6,C82U A111G A120C A145U C150U U176A,0.0147
7,C82U A111G A120C C150U C169G U176C,0.0156
8,C82U A111G A120C C150U C169G U176A,0.0205
9,C82U A111G A120C C150U C169G U176G,0.00447
10,C82U A111G A120C C169A U176G,0.00425
11,C82U A111G A120C C169A U176A,0.014
12,C82U A111G A120C C169A U176C,0.0132
13,C82U A111G A120C C150A C169G U176A,0.0237
14,C82U A111G A120C C150A C169G U176G,0.00458
15,C82U A111G A120C C150A C169G U176C,0.0191
16,C82U A111G A120C U176A,0.0204
17,C82U A111G A120C U176C,0.0288
18,C82U A111G A120C U176G,0.00542
19,C82U A111G A120G A145C C150U C169G U176C,0.0111
20,C82U A111G A120G A145C C150U C169G U176G,0.0045
21,C82U A111G A120G A145C C150U C169G U176A,0.0203

row,Variant,reverse-splicing fitness
1,C82U A111G A120C C150G C169A,0.0083
2,C82U A111G A120C C150G C169G,0.00713
3,C82U A111G A120C C150G C169U,0.00828
4,C82U A111G A120C C150G,0.00825
5,C82U A111G A120C C150A,0.0113
6,C82U A111G A120C C150U,0.0325
7,C82U A111G A120G A145C C150G,0.00632
8,C82U A111G A120G A145C C150U,0.00813
9,C82U A111G A120G A145C C150A,0.00658
10,C82U A111G A120C A145U C169U U176C,0.0132
11,C82U A111G A120C A145U C169U U176G,0.00307
12,C82U A111G A120C A145U C169U U176A,0.0139
13,C82U A111G A120C A145G C169U U176G,0.00401
14,C82U A111G A120C A145G C169U U176C,0.0146
15,C82U A111G A120C A145G C169U U176A,0.0141
16,C82U A111G A120G A145U C150A C169G U176C,0.0137
17,C82U A111G A120G A145U C150A C169G U176A,0.0124
18,C82U A111G A120G A145U C150A C169G U176G,0.00398
19,C82U A111G A120G A145C C150G C169G U176C,0.00692
20,C82U A111G A120G A145C C150G C169G U176A,0.00868
